Patent publication US20230332136A1, “IL-17 RECEPTOR MODULATOR SCREENING SYSTEM” (New York University, priority 2022, published 2023)

Experiments:
IL-17RA/RC = target: T1, IL-17RA/RC (Mus musculus, UniProt Q60943+Q8K4C2); experiment: mADIR-17 dmCherry reporter assay in MEF cells (flow cytometry); assay type: cell-based
T1 construct: Full length IL-17RC in the purified ADIR system; expressed in transfected cells; host or cells: mouse embryonic fibroblasts (MEF), retrovirally transduced
T1 sequence (Q60943 32-864): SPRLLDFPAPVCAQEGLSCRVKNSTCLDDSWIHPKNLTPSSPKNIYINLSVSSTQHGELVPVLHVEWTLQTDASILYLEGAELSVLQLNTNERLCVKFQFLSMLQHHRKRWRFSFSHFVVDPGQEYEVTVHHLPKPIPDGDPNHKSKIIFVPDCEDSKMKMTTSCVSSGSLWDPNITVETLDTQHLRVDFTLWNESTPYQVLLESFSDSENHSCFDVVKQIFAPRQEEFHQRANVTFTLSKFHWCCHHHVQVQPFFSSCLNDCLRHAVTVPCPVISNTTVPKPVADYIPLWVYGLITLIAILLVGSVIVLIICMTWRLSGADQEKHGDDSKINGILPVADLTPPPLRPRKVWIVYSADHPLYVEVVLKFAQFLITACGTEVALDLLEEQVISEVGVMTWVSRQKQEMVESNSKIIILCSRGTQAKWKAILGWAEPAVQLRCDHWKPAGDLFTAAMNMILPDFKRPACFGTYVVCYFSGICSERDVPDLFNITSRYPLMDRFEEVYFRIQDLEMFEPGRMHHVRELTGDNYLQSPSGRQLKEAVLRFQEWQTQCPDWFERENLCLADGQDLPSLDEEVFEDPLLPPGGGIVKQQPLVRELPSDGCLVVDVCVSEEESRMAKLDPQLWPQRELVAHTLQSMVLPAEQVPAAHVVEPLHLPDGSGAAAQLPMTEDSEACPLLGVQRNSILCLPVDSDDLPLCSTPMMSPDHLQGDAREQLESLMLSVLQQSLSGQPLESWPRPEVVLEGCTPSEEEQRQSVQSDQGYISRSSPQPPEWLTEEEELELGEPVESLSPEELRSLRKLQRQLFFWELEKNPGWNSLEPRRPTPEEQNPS
T1 sequence (Q8K4C2 22-698): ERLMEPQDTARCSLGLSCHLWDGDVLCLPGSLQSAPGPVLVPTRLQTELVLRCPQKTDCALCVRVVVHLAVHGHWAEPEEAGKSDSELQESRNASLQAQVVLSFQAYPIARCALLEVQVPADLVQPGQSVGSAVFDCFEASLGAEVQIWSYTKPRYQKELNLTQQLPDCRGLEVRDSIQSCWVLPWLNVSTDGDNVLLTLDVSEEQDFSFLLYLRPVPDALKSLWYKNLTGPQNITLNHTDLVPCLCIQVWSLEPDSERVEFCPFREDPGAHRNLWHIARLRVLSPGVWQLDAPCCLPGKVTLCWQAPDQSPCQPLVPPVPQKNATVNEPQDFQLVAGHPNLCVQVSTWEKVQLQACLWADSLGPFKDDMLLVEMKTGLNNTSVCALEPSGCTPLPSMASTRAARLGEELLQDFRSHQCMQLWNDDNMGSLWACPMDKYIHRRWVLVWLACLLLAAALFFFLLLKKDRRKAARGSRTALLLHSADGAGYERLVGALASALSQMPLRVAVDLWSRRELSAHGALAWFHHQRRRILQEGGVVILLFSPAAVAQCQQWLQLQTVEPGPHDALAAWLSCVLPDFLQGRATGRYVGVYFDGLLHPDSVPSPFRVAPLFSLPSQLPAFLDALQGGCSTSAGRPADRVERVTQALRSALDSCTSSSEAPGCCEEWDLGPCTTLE
Source text: Unless defined otherwise herein, all technical and scientific terms used in this disclosure have the same meaning as commonly understood by one of ordinary skill in the art to which this disclosure pertains. Where the term “ADIR” is used herein it means ACT1-Dependent IL-17 Receptor Modulator Screening System. The preface “m” means mouse and the prefix “h” means human.
Mouse constructs were produced as depicted in the panels of FIG. 1. Human sequence constructs were produced as in the panels of FIG. 9, where mouse cDNA constructs were replaced by human cDNA constructed. In the mouse ADIR system exogenous IL-17RC was not provided because the cell line (mouse embryonic fibroblasts) have endogenous IL-17RC expression. In the hADIR system, human components used for the hADIR system (hRA, hRC, hRB, hAct1) were expressed from added polynucleotides.
The data reflected in the Figures utilized a reporter system specifically designed for Act1-dependent IL-17 signaling pathways. The reporter system is based at least in part on the principle that the engagement of active cognate ligands, and the interaction between Act1 and IL-17 receptors is required for active signaling of IL-17A/F, IL-17E, and IL-17C. The protein-protein-interaction (PPI) based reporter system is highly specific and easily scalable. The disclosure is illustrated using mouse and human systems. For the data presented in the Figures, the system comprised a three-part reporter system specifically designed for detecting IL-17A/F, IL-17E, and IL-17C signaling. The PPI-based reporter system provides for detecting active signaling, and is specific for each of the IL-17 family cytokines. The system that is responsive to binding of IL-17A and IL-17F comprises (1) an Act1-tobacco etch virus (TEV) protease fusion protein, which upon active IL-17A/F binding to the IL-17RA/RC receptor heterodimer on a target cell, will be recruited to (2) IL-17RC fused with a TEV cleavage site(TSC)-tTA (a transcriptional transactivator that binds to tetracycline responsive element, or TRE), releasing tTA, which will subsequently translocate into the nucleus where a (3) TRE-dmCherry-PEST (destabilized mCherry) element is integrated into the genome. tTA binds to the TRE to drive dmCherry expression in the target modified cell. The three described components, Act1-TEV, IL-17RC-TSC-tTA, and TRE-dmCherry-PEST, along with IL-17RA, can be delivered by retro or lenti-viral vectors or guide-RNA directed nucleases, or recombinase systems, or by homologous recombination, into mouse embryonic fibroblasts (MEF) or other mammalian cell lines, establishing stable reporter cell lines. Using the same principle, IL-17RC-TSC-tTA can be replaced with IL-17RB-TSC-tTA in the described system to provide for IL-17E (IL-25) binding, and with IL-17RE-TSC-tTA for detecting IL-17C binding. A parallel approach involves attaching the fusion protein of —TSC-tTA to the RA component and three independent system cell lines generated by supplementing RC/RB/RE, Act1-TEV, and TRE-dmCherry reporter components. Each of the retroviral vectors can contain a unique selection or fluorescent marker to enable efficient generation and maintenance of stable cell lines (for example, Puromycin resistance for m/hIL-17RC(RB, RE)-TSC-tTA; EBFP for m/hAct1-TEV; Neomycin resistance and mVenus fluorescence for TRE-dmCherry-PEST, and Thy1.1 for m/hRA).

IL-6 = experiment: IL-17A titration for activation of endogenous target gene IL-6 in MEF cells; assay type: cell-based, mouse; settings: IL-17A titration (FIG. 3B)
Source text: FIGS. 3A and 3B provide construct schematics (designed for mouse genes), and cartoon depictions of the proteins encoded by the constructs, and a graph illustrating IL-17A titrations for activation of an endogenous target gene (IL-6) in MEF cells. […] FIG. 3A: schematics of functional units of the retroviral transfer plasmid constructs used to build the mouse ADIR system.

- dmCherry signal produced (IL-17RA/RC; 0.4 ng/ml, after 24 hrs (FIG. 7)): 5.75%
- dmCherry signal produced (IL-17RA/RC; 2 ng/ml, after 24 hrs (FIG. 7)): 24.6%
- dmCherry signal produced (IL-17RA/RC; 10 ng/ml, after 24 hrs (FIG. 7)): 43.6%
- cells turning on dmCherry signal (IL-17RA/RC; 50 ng/ml, 24 hr after plating (FIG. 5B)): 27.2%
- dmCherry signal produced (IL-17RA/RC; 50 ng/ml, after 24 hrs (FIG. 7)): 55.1%
- dmCherry signal produced (IL-17RA/RC; 100 ng/ml, after 24 hrs (FIG. 6I)): 25%
- dmCherry signal produced (IL-17RA/RC; 100/2 ng/ml, after 24 hrs (FIG. 6H)): 24.5%
- dmCherry signal produced (IL-17RA/RC; 100/(2^2) ng/ml, after 24 hrs (FIG. 6G)): 21.9%
- dmCherry signal produced (IL-17RA/RC; 100/(2^3) ng/ml, after 24 hrs (FIG. 6F)): 19.9%
- dmCherry produced (IL-17RA/RC; 100/(2^4) ng/ml, after 24 hrs (FIG. 6E)): 17.6%
- dmCherry signal produced (IL-17RA/RC; 100/(2^5) ng/ml, after 24 hrs (FIG. 6D)): 12.6%
- dmCherry signal produced (IL-17RA/RC; 100/(2^6) ng/ml, after 24 hrs (FIG. 6C)): 8.69%
- dmCherry signal produced (IL-17RA/RC; 100/(2′7) ng/ml, after 24 hrs (FIG. 6B)): 5.36%
- EC50 (sensitivity, dose-dependent dmCherry response) (IL-17RA/RC; mIL-17A/F system, three parameter [Agonist] vs. response fit (FIG. 6J)): 3.556 ng/mL
B1: IL-17A: mouse IL-17 family cytokine, cognate ligand of IL-17RA/RC, used as agonist in the mADIR-17 system (protein, UniProt Q62386 26-158, looked up)
Interleukin-17A: AAIIPQSSACPNTEAKDFLQNVKVNLKVFNSLGAKVSSRRPSDYLNRSTSPWTLHRNEDPDRYPSVIWEAQCRHQRCVNAEGKLDHHMNSVLIQQEILVLKREPESCPFTFRVEKMLVGVGCTCVASIVRQAA
- activation of endogenous target gene (IL-6) (IL-6): upregulation of IL-6
